Reference: US20180360932A1 (OPKO BIOLOGICS, published 2018)

Target: MOD-5014 (FVIIa-CTP3, activated Factor VII-CTP-CTP-CTP) (human) (UniProt P08709)
Assay: cell-based or functional assay

Chain of Tissue factor pathway inhibitor (TFPI) (P10646 29-304 limits assumed): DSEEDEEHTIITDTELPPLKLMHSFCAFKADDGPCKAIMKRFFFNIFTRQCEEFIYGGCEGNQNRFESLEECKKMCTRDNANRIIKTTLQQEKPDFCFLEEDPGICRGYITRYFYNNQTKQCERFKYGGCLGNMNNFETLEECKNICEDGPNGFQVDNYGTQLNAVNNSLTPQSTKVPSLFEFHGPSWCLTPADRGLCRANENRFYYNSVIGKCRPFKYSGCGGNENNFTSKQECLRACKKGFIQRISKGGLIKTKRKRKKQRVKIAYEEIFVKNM

For “Tissue factor pathway inhibitor (TFPI) (from UniProt P10646 29-304)”, the sensitivity of FVIIa/TF generation of FXa to TFPI inhibition, relative to MOD-5000 was 124%.
